Assay results: patent publication US20090297438A1 (published 2009)
Residue numbers refer to the chain shown, from its start.

What was measured:
[1] = target: T1, human prostate specific membrane antigen (PSMA) on LNCaP prostate cancer cells (human, UniProt Q04609 1-750); assay: cell-based or functional assay
[2] = target: T1, human prostate specific membrane …; assay: Scatchard analysis, 125I-labelled antibody on LNCaP cells
Procedure: The binding affinity of the 2A10 antibody for the PSMA-expressing prostate cancer LNCaP cell line was tested using a Scatchard analysis.
LNCaP cells were obtained from ATCC(CRL-1740) and grown in RPMI media containing 10% fetal bovine serum (FBS). The cells were trypsinized and washed once in Tris based binding buffer (24 mM Tris pH 7.2, 137 mM NaCl, 2.7 mM KCl, 2mM Glucose, 1 mM CaCl₂, 1 mM MgCl₂, 0.1% BSA) and the cells were adjusted to 2×10⁶ cells/ml in binding buffer. Millipore plates (MAFB NOB) were coated with 1% nonfat dry milk in water and stored a 4° C. overnight. The plates were washed three times with 0.2 ml of binding buffer. Fifty microliters of buffer alone was added to the maximum binding wells (total binding). Twenty-five microliters of buffer alone was added to the control wells (non-specific binding). Varying concentration of ¹²⁵I-anti-PSMA antibody was added to all wells in a volume of 25 μl . Varying concentrations of unlabeled antibody at 100 fold excess was added in a volume of 25 μl to control wells and 25 μl of LNCaP cells (2×10⁶ cells/ml) in binding buffer were added to all wells. The plates were incubated for 2 hours at 200 RPM on a shaker at 4° C. […] The filters were removed and counted in a gamma counter. […]

[3] = target: T1, human prostate specific membrane …; assay: flow cytometry on LNCaP cells, FITC-labeled anti-human IgG detection
Procedure: The human PSMA-expressing prostate cancer cell line LNCaP was used to determine the specificity of anti-PSMA human monoclonal antibodies by flow cytometry. Binding of the 2F5, 2A10, and 2C6 anti-PSMA human monoclonal antibodies was assessed by incubating the LNCaP cells with the anti-PSMA human monoclonal antibodies at different concentrations. The cells were washed and binding was detected with a FITC-labeled anti-human IgG Ab. Flow cytometric analyses were performed using a FACScan flow cytometry (Becton Dickinson, San Jose, Calif.). The human anti-PSMA monoclonal antibody 7F12 (as described in PCT Publication WO 03/064606) was used as a positive control and a non-PSMA specific isotype control antibody was used as a negative control. The results are depicted in FIG. 9. The anti-PSMA human monoclonal antibodies 2F5, 2A10, and 2C6 bound specifically to the PSMA-expressing LNCaP cells.

[4] = target: T2, PSMA immunopurified from LNCaP cells (human, UniProt Q04609 1-750); assay: ELISA on PSMA immunopurified from LNCaP cells, HRP goat anti-human IgG (kappa chain-specific) detection
T2 construct: also called purified PSMA; immunopurified PSMA
Procedure: A comparison of anti-PSMA antibodies on binding to immunopurified PSMA was performed by standard ELISA to examine the specificity of binding for PSMA.
PSMA was immunopurified from LNCaP cells and tested for binding against the anti-PSMA human monoclonal antibodies 1C3, 2A10, 2F5, and 2C6. Standard ELISA procedures were performed. The anti-PSMA human monoclonal antibodies were added at a concentration of 5 μg/ml and titrated down at 1:2 serial dilutions. Goat-anti-human IgG (kappa chain-specific) polyclonal antibody conjugated with horseradish peroxidase (HRP) was used as secondary antibody. The human anti-PSMA monoclonal antibody 7F12 was used as a positive control and a blank was used as a negative control. The anti-PSMA human monoclonal antibodies 2A10 and 2F5 bound with high specificity to PSMA.

[5] = target: T1, human prostate specific membrane …; assay: radioligand competition on LNCaP cells: unlabeled antibody varied against a fixed concentration of 125I-7F12
Procedure: (§1) LNCaP cells were obtained from ATCC(CRL-1740) and grown in RPMI media containing 10% fetal bovine serum (FBS). The cells were trypsinized and washed once in Tris based binding buffer (24 mM Tris pH 7.2, 137 mM NaCl, 2.7 mM KCl, 2 mM Glucose, 1 mM CaCl₂, IMM MgCl₂, 0.1% BSA) and the cells were adjusted to 2×10⁶ cells/ml in binding buffer. Millipore plates (MAFB NOB) were coated with 1% nonfat dry milk in water and stored a 4° C. overnight. The plates were washed three times with 0.2 ml of binding buffer. Twenty-five microliters of buffer alone was added to the wells (non-specific binding). A fixed concentration of ¹²⁵I-anti-PSMA antibody was added to all wells in a volume of 25 μl. Varying concentrations of unlabeled antibody was added to wells in a volume of 25 μl and 25 μl of LNCaP cells (2×10⁶ cells/ml) in binding buffer were added to all wells. The plates were incubated for 2 hours at 200 RPM on a shaker at 4° C. At the completion of the incubation the Millipore plates were washed three times with 0.2 ml of cold wash buffer (24 mM Tris pH 7.2, 500mM NaCl, 2 mM KCl, 2 mM Glucose, 1 mM CaCl₂, 1 mM MgCl₂, 0.1% BSA). The filters were removed and counted in a gamma counter. Evaluation of equilibrium binding was performed using single site binding parameters with the Prism software (San Diego, Calif.). An isotype control antibody was used as a negative control. […]

[6] = target: T1, human prostate specific membrane …; assay: radioligand competition on LNCaP cells: unlabeled antibody varied against a fixed concentration of 125I-2A10
Procedure: as §1

T2 sequence (Q04609 whole entry): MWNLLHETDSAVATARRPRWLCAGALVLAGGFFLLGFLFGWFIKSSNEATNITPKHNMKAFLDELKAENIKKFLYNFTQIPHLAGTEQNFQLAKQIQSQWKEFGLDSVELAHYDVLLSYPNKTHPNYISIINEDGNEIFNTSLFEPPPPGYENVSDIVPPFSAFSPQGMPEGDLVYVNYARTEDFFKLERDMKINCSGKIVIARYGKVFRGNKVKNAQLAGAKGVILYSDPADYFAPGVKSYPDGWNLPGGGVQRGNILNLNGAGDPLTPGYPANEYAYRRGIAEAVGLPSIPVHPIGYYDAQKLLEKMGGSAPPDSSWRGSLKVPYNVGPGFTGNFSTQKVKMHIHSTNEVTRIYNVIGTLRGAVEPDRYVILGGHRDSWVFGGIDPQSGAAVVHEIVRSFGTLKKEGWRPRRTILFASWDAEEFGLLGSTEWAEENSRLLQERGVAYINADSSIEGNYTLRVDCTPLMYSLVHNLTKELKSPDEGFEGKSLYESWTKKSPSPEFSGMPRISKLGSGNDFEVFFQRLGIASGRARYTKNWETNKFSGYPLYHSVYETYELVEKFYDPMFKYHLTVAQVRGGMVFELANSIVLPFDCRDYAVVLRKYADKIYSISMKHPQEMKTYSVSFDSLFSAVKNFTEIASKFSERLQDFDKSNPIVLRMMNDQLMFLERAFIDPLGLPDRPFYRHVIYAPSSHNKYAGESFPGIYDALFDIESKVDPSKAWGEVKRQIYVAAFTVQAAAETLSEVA
T1 sequence (Q04609 whole entry): as above

B1: anti-PSMA HuMAb antibody 2A10 conjugated to a toxin (antibody, V domains shown)
VH: EVQLVQSGAEVKKPGESLKISCKGSGYSFTSNWIGWVRQMPGKGLEWMGIIYPGDSDTRYSPSFQGQVTISADKSISTAYLQWSSLKASDTAMYYCARQTGFLWSSDLWGRGTLVTVSS
VL: AIQLTQSPSSLSASVGDRVTITCRASQDISSALAWYQQKPGKAPKLLIYDASSLESGVPSRFSGYGSGTDFTLTINSLQPEDFATYYCQQFNSYPLTFGGGTKVEIK
EC50, 3H-thymidine incorporation cell proliferation assay, continuous wash [1]: 0.0643 nM
EC50, 3H-thymidine incorporation cell proliferation assay, three-hour wash [1]: 0.157 nM

B2: anti-PSMA human monoclonal antibody 2A10 (antibody, V domains shown)
VH: B1 VH
VL: B1 VL
notes: also called anti-PSMA HuMAb 2A10
Kd [2]: ~0.8 nM
EC50 (read off the curve) [3]: ~0.7 µg/mL
EC50 (read off the curve) [4]: ~0.04 µg/mL
IC50 (read off the curve) [5]: ~1 nM
IC50 (read off the curve) [6]: 1 to 2 nM

B3: anti-PSMA human monoclonal antibody 1C3 (antibody, V domains shown)
VH: QVQLVESGGGVVQPGRSLRLSCAASGFTFSSYAMHWVRQAPGKGLEWVAVISYDGNNKYYADSVKGRFTISRDNSKNTLYLQMNSLRAEDTAVYYCARAVPWGSRYYYYGMDVWGQGTTVTVSS
VL: B1 VL with D28G, P40S, Y49F, Y65S, N76S
binding result [4]: binds

B4: anti-PSMA human monoclonal antibody 2F5 (antibody, V domains shown)
VH: B1 VH with S84N, S106F
VL: AIQLTQSPSSLSASVGDRVTITCRASQDISSALAWYQQKPGKAPKLLIYDASSLESGVPSRFSGSGSGTDFTLTISSLQPEDFATYYCQQFNSYPLTFGGGTKVEIKI
EC50 (read off the curve) [3]: ~0.8 µg/mL
EC50 (read off the curve) [4]: ~0.04 µg/mL

B5: anti-PSMA human monoclonal antibody 2C6 (antibody, V domains shown)
VH: EVQLVQSGSEVKKPGESLKISCKGSGYSFTNYWIGWVRQMPGKGLEWMGIIYPGDSDTRYSPSFQGQVTISADKSISTAYLQWSSLKASDTAMYYCASPGYTSSWTSFDYWGQGTLVTVSS
VL: EIVLTQSPATLSLSPGERATLSCRASQSVSSYLAWYQQKPGQAPRLLIYDASNRATGIPARFSGSGSGTDFTLTISSLEPEDFAVYYCQQRSNWPLFTFGPGTKVDIK
binding result [3]: binds
binding result [4]: binds
